Paper PMC6996649, “Rational Engineered C-Acyltransferase Transforms Sterically Demanding Acyl Donors” (ACS Catalysis, 2019)

Key:
Format in all cases: biochemical, Pseudomonas protegens
CCCC(=O)Oc1ccccc1 = test system: T1, CCCC(=O)Oc1ccccc1; experiment: HPLC assay of resorcinol acylation; details: 10 mM resorcinol as acceptor, 100 mM imidazole, potassium phosphate pH 7.5, 35 °C
T1 construct: PhlABC multi-subunit acyltransferase from codon-harmonized construct, recombinant in E. coli, purified enzyme; with 2,4-diacetylphloroglucinol biosynthesis acyltransferase subunit PhlA; 2,4-diacetylphloroglucinol biosynthesis acyltransferase subunit PhlB
From the text: (§1) HPLC assay of resorcinol acylation on PpATaseCH

COCC(=O)Oc1ccccc1 = test system: T2, COCC(=O)Oc1ccccc1; experiment: HPLC assay of resorcinol acylation; details: 10 mM resorcinol as acceptor, 100 mM imidazole, potassium phosphate pH 7.5, 35 °C
T2 construct: PhlABC multi-subunit acyltransferase from codon-harmonized construct, recombinant in E. coli, purified enzyme; with 2,4-diacetylphloroglucinol biosynthesis acyltransferase subunit PhlA; 2,4-diacetylphloroglucinol biosynthesis acyltransferase subunit PhlB
From the text: as §1

CC(=O)c1c(O)cc(O)cc1O = test system: T3, CC(=O)c1c(O)cc(O)cc1O; experiment: purified protein; details: disproportionation to DAPG, 100 mM potassium phosphate pH 7.5, 35 °C
T3 construct: PhlABC multi-subunit acyltransferase from codon-harmonized construct, recombinant in E. coli, purified enzyme; with 2,4-diacetylphloroglucinol biosynthesis acyltransferase subunit PhlA; 2,4-diacetylphloroglucinol biosynthesis acyltransferase subunit PhlB

CCCC(=O)c1c(O)cc(O)cc1O = test system: T4, CCCC(=O)c1c(O)cc(O)cc1O; experiment: purified protein; details: disproportionation to 3a (DBPG), 100 mM potassium phosphate pH 7.5, 35 °C
T4 construct: PhlABC multi-subunit acyltransferase from codon-harmonized construct, recombinant in E. coli, purified enzyme; with 2,4-diacetylphloroglucinol biosynthesis acyltransferase subunit PhlA; 2,4-diacetylphloroglucinol biosynthesis acyltransferase subunit PhlB

PpATaseCH (Pseudomonas protegens Pf-5; F148V)
Km (CCCC(=O)Oc1ccccc1): 3.2 ± 0.1 mM | Vmax (CCCC(=O)Oc1ccccc1): 40 µM/min | kcat (CCCC(=O)Oc1ccccc1): 0.012 ± 0.002 s⁻¹ | kcat/Km (CCCC(=O)Oc1ccccc1): 3.7 ± 0.6 M⁻¹ s⁻¹ | Km (COCC(=O)Oc1ccccc1): 5.0 ± 1.0 mM | Vmax (COCC(=O)Oc1ccccc1): 580 µM/min | kcat (COCC(=O)Oc1ccccc1): 0.188 ± 0.016 s⁻¹ | kcat/Km (COCC(=O)Oc1ccccc1): 38.7 ± 8.5 M⁻¹ s⁻¹ | Km (CC(=O)c1c(O)cc(O)cc1O): 0.24 ± 0.09 mM | Vmax (CC(=O)c1c(O)cc(O)cc1O): 820 µM/min | kcat (CC(=O)c1c(O)cc(O)cc1O): 7.2 ± 1.9 s⁻¹ | kcat/Km (CC(=O)c1c(O)cc(O)cc1O): 31000 ± 4000 M⁻¹ s⁻¹ | Km (CCCC(=O)c1c(O)cc(O)cc1O): 0.54 ± 0.07 mM | Vmax (CCCC(=O)c1c(O)cc(O)cc1O): 620 µM/min | kcat (CCCC(=O)c1c(O)cc(O)cc1O): 5.3 ± 0.6 s⁻¹ | kcat/Km (CCCC(=O)c1c(O)cc(O)cc1O): 9900 ± 800 M⁻¹ s⁻¹
